We go through two molecules from EP4569003A2 (dated 2026).

Assay [1] addresses T1, CLDN6 cytoplasmic domain peptide SHYMARYSTSAPAIS (SEQ ID NO: 99) (human).
T1 peptide: SHYMARYSTSAPAIS
Kind of assay: peptide epitope mapping (FIG 2).

Assay [2] deals with T2, CLDN3-GFP, expressed in HEK293 T cells (UniProt O15551 1-220).
T2 construct: whole, on cells; also called Claudin3; HEK293 CLDN3; not shown: GFP fused to CLDN3
T2 sequence (looked up): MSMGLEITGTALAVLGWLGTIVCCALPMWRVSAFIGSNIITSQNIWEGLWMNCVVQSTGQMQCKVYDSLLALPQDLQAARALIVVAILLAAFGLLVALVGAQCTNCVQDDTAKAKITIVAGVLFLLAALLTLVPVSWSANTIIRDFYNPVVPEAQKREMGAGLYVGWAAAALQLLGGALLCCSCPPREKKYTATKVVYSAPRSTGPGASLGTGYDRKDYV
Kind of assay: immunohistochemistry on FFPE engineered HEK293 cells.

In assay [3] the target is T3, CLDN4-GFP, expressed in HEK293 T cells (UniProt O14493 1-209).
T3 construct: whole, on cells; also called Claudin4; HEK293 4; not shown: GFP fused to CLDN4
T3 sequence (looked up): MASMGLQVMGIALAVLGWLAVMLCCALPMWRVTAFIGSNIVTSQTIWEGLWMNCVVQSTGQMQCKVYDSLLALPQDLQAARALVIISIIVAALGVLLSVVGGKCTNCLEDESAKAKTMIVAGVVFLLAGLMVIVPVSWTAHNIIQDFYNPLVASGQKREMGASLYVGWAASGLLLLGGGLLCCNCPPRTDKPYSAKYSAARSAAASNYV
The assay is described as above.

The target in assay [4] is T4, CLDN9-GFP, expressed in HEK293 T cells (UniProt O95484 1-217).
T4 construct: whole, on cells; also called Claudin9; HEK293 9; not shown: GFP fused to CLDN9
T4 sequence (looked up): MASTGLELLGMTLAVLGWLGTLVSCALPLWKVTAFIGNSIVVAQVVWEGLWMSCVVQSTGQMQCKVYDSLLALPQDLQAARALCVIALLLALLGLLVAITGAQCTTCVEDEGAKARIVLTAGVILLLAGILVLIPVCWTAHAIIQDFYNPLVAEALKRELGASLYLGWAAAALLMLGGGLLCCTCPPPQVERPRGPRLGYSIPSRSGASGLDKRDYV
The assay is described as above.

B1: Claudin-6 (CLDN6) antibody 3D07 (antibody, V domains shown)
VH: EVQLQQFGAELVKPGASVKISCRTSGYTFTDYNIDWVRQSHGKSLEWIGDINPNSENTDYNQKFKGKATLTVDKSSSTAYLELRSLTSEDTAVYYCARSPYGNYVGYLMDYWGQGTSVTVSS
VL: DVVLTQTPLSLPVNIGDQASISCRSTKSLLNSDGFTYLDWYLQKPGQSPQVLIYLISNRFSGVPDRFSGNGSGTDFTLKISRVEAEDLGVYYCFQSNYIPLTFGAGTKLELK
notes: Mouse hybridoma clone; Detection was with goat anti-mouse IgG; also called clone 3D07
On to B1, for which the binding result in assay [1] is “binds”; in assay [2] it was “no binding”; in assay [3], “no binding”; in assay [4] it was “no binding”.

B2: Claudin-6 (CLDN6) antibody 3H11 (antibody, V domains shown)
VH: EIQLQQSGAELVRPGALVRLSCKPSGFNIKDYYIHWVKERPEQGLEWIGWIDPDNGDTLYDSKFQGKASLTADTSSNTAYLQLTSLTSEDTAVYYCATYRYSFAYWGQGTLVTVSA
VL: DIQMNQSPSSLSASLGDTITITCHASQNINVWLNWYQQKPGNIPKLLIFKASNLYTGVPSRFSGGGSGTGFTLTISSLQPEDIATYYCQQGQTYPLTFGGGTKLEIK
notes: Mouse hybridoma clone; Detection was with goat anti-mouse IgG; also called clone 3H11
B2: the binding result in assay [2], in assay [3] and in assay [4] was “no binding” in each case.
